From US20030211540

Tested on: T1, PKC inhibitor peptide 19-31 (Arg-Phe-Ala-Arg-Lys-Gly-Ala-Leu-Arg-Gin-Lys-Asn-Val)
T1 sequence: RFARKGALRQKNV

Protein kinase C
insulin-stimulated DNA synthesis (BrDU incorporation) under high glucose after microinjection of the peptide: partially reversed inhibition of DNA synthesis
